Results from paper PMC2757048.
Read-outs that look alike come from different tables or passages of the source.

Tests used:
[1] = target: paclitaxel-stabilized microtubules (UniProt P02550)
[2] = target: paclitaxel-stabilized microtubules (UniProt P02550); experiment: co-sedimentation
[3] = target: paclitaxel-stabilized microtubules (UniProt P02550); experiment: co-sedimentation; remark: listed apart in the source
[4] = target: paclitaxel-stabilized microtubules (UniProt P02550); experiment: co-sedimentation; remark: listed apart in the source

Chain of UniProt P02550 (P02550 whole entry, chain 1 of 2): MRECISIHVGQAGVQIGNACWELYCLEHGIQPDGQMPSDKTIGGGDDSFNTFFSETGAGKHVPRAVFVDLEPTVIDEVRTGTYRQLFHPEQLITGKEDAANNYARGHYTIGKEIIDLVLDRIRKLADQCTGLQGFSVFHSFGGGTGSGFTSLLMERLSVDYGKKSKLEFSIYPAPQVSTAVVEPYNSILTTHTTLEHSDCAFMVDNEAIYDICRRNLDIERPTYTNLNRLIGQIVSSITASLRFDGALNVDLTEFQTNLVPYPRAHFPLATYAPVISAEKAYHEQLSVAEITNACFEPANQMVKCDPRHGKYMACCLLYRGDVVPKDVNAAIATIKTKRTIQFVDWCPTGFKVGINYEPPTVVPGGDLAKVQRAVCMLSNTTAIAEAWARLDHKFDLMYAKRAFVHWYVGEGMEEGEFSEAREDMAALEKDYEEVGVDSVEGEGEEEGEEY
Chain of UniProt P02550 (P02554 whole entry, chain 2 of 2, further chain): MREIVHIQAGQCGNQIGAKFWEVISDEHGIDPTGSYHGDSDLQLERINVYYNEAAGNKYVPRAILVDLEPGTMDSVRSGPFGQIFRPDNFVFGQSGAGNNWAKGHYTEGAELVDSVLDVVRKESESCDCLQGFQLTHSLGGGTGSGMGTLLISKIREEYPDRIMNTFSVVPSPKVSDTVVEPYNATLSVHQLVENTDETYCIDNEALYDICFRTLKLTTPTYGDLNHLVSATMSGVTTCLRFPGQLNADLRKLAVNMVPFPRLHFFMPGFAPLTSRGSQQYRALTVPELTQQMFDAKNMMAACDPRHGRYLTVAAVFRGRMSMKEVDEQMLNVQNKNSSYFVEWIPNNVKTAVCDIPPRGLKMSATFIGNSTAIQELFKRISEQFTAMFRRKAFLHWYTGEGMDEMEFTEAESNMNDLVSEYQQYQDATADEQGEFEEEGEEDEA

Row | Substance | Km(MT) of MT-activated steady-state ATPase, untreated dynein, 1 mM ATP, 25 °C [1] | Kd [2] | Kd [3] | Kd [4]
1 | HFG380 L3339C Q3510C double-Cys mutant, untreated, P34036 1388-4730 | 40.5 µM | > 10 µM | 0.61 µM | 
2 | HFG380 Q3340C I3513C double-Cys mutant, untreated, P34036 1388-4730 | 14.5 µM | > 10 µM | 0.65 µM | 
3 | HFG380 L3339C I3517C double-Cys mutant, oxidized (stalk coiled coil locked in the −β registry), P34036 1388-4730 |  | > 10 µM |  | > 10 µM
4 | HFG380 L3339C I3517C double-Cys mutant, untreated, P34036 1388-4730 | 26.6 µM | > 10 µM |  | 
5 | HFG380 L3339C Q3510C double-Cys mutant, oxidized (stalk coiled coil locked in the +β registry), P34036 1388-4730 |  | > 10 µM |  | > 10 µM
